From patent US20220073646A1 (Hoffmann-La Roche, published 2022)
Where two headings read alike, the source gives them in different places.

How the values were obtained:
[1] = target: T1, recombinant murine GITR Fc(kih) (murine, UniProt P0DOX5 223-449 = IgG part, biotin on C-terminal Avi tag); assay: SPR Biacore T200
T1 construct: also called mu GITR-Fc
Protocol: All SPR experiments were performed on a Biacore T200 at 25° C. with HBS-EP as running buffer (0.01 M HEPES pH 7.4, 0.15 M NaCl, 3 mM EDTA, 0.005% Surfactant P20, Biacore, Freiburg/Germany). In the same experiment, the species selectivity and the avidity of the interaction between the GITR binder (human IgG1 P329GLALA), and recombinant GITR (human, cyno and murine) was determined. […] Immobilization levels up to 100 resonance units (RU) were used.
Anti-GITR human IgG1 P329GLALA antibody was passed at a concentration range from 0.2 to 200 nM (4-fold dilution) with a flow of 30 μL/minute through the flow cells over 120 seconds. Complex dissociation was monitored for 180 seconds. Bulk refractive index differences were corrected for by subtracting the response obtained in a reference flow cell, where no protein was immobilized.

[2] = target: T2, recombinant human GITR Fc(kih) (human, UniProt P0DOX5 223-449 = IgG part, biotin on C-terminal Avi tag where used biotinylated); assay: SPR, captured IgG, GITR Fc(kih) analyte
T2 construct: also called hu GITR-Fc; human monomeric GITR-Fc fusion
Protocol: (§1) In the same experiment, the affinities of the interaction between the GITR antibody (human IgG1 P329GLALA) to recombinant GITR (human and cyno) were determined. Anti-human Fab antibody (Biacore, Freiburg/Germany) was directly coupled on a CM5 chip at pH 5.0 using the standard amine coupling kit (Biacore, Freiburg/Germany). The immobilization level was approximately 7000 RU. The GITR antibody was captured for 90 seconds at 5 nM. […] The dissociation was monitored for 180 seconds. Bulk refractive index differences were corrected for by subtracting the response obtained on reference flow cell.

[3] = target: T3, recombinant cynomolgus GITR Fc(kih) (cynomolgus, UniProt P0DOX5 223-449 = IgG part, biotin on C-terminal Avi tag where used biotinylated); assay: SPR, captured IgG, GITR Fc(kih) analyte
T3 construct: also called cy GITR-Fc
Protocol: as §1

human OX40 on cells [4] = target: T4, human OX40 on cells (human, UniProt P43489 29-277); assay: cell-based or functional assay
T4 sequence: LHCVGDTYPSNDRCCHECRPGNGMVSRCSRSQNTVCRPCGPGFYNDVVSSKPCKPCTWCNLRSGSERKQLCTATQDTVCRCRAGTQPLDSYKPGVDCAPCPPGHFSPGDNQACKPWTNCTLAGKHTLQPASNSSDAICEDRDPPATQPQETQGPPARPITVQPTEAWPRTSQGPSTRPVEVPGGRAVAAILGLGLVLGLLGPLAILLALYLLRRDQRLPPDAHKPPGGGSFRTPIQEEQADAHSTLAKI

human OX40 on cells [5] = target: T4, human OX40 on cells; assay: cell-based or functional assay; remark: listed apart in the source
[6] = target: T5, human fibroblast activation protein (huFAP) on cells (human, UniProt Q12884 1-760); assay: flow cytometry, WM266-4 cells
T5 construct: also called NIH/3T3-huFAP clone 39; NIH/3T3-huFAP clone 19

[7] = target: T6, recombinant human OX40 His (human); assay: SPR, captured IgG, OX40 His analyte
T6 construct: ectodomain with avi and hexahistidine tag; also called human Ox40 avi His
T6 chain: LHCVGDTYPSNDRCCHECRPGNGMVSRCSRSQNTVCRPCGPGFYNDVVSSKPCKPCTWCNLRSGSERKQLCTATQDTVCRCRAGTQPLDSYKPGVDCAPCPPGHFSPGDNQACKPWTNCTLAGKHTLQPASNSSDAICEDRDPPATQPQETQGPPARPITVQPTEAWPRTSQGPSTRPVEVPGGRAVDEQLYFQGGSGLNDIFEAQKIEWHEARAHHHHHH
Protocol: (§2) All SPR experiments were performed on a Biacore T200 at 25° C. with HBS-EP as running buffer (0.01 M HEPES pH 7.4, 0.15 M NaCl, 3 mM EDTA, 0.005% Surfactant P20, Biacore, Freiburg/Germany).
Setup 2) Anti-human Fc antibody (Biacore, Freiburg/Germany) was directly coupled on a CM5 chip at pH 5.0 using the standard amine coupling kit (Biacore, Freiburg/Germany). The immobilization level was approximately 8000 RU. […] The dissociation was monitored for 120 seconds. Bulk refractive index differences were corrected for by subtracting the response obtained on reference flow cell.

[8] = target: T7, recombinant human OX40 Fc(kih) (human, UniProt P0DOX5 223-449 = IgG part, biotin on C-terminal Avi tag where used biotinylated); assay: SPR, captured IgG, OX40 Fc(kih) analyte
T7 construct: antigen Fc knob chain plus Fc hole chain; also called monomeric human OX40 antigen Fc(kih) fusion; biotinylated human OX40
Protocol: as §2
Setup 1) Anti-human Fab antibody (Biacore, Freiburg/Germany) was directly coupled on a CM5 chip at pH 5.0 using the standard amine coupling kit (Biacore, Freiburg/Germany). The immobilization level was approximately 9000 RU. […] The dissociation was monitored for 120 seconds. Bulk refractive index differences were corrected for by subtracting the response obtained on reference flow cell.

human OX40 on cells [9] = target: T4, human OX40 on cells; assay: flow cytometry, activated human CD4 T cells
Protocol: Plates were centrifuged 4 minutes with 400×g and at 4° C. and supernatant was flicked off. Cell were washed once with 200 μL 4° C. cold FACS buffer (DPBS supplied with 2% FBS, 5 mM EDTA pH8 (Amresco, Cat. No. E177) and 7.5 mM Sodium azide (Sigma-Aldrich S2002)). […] Plates were washed four times with 200 μL/well 4° C. FACS buffer to remove unbound construct.
Plates where washed twice with 200 μL/well 4° C.

human OX40 on cells [10] = target: T4, human OX40 on cells; assay: flow cytometry, activated human CD4 T cells; remark: listed apart in the source
[11] = target: recombinant cynomolgus OX40 Fc(kih) (cynomolgus, UniProt P0DOX5 223-449 = IgG part, biotin on C-terminal Avi tag where used biotinylated); assay: SPR, captured IgG, cyno OX40 Fc(kih) analyte
Protocol: as §2
Anti-human Fab antibody (Biacore, Freiburg/Germany) was directly coupled on a CM5 chip at pH 5.0 using the standard amine coupling kit (Biacore, Freiburg/Germany). The immobilization level was approximately 9000 RU. […] The dissociation was monitored for 120 seconds. Bulk refractive index differences were corrected for by subtracting the response obtained on reference flow cell.

human OX40 on cells [12] = target: T4, human OX40 on cells; assay: flow cytometry, activated human CD4 T cells; remark: listed apart in the source
[13] = target: T8, cynomolgus OX40 on activated cynomolgus PBMC (cynomolgus, UniProt P43489 29-214 (human entry)); assay: flow cytometry, activated cynomolgus CD4 T cells
T8 construct: whole, on cells
T8 chain: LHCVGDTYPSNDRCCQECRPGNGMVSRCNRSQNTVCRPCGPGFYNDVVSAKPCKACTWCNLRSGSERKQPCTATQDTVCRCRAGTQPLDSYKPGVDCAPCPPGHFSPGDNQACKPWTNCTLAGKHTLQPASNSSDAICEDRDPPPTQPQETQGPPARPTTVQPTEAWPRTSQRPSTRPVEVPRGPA
Protocol: Then, plates were washed four times with 200 μL/well 4° C. FACS buffer. […] Plates where washed twice with 200 μL/well 4° C.

[14] = target: T9, huOX40-SNAP fusion on Hek293 EBNA cells (human, UniProt P43489 29-277, labeled with the FRET donor Terbium); assay: cell FRET competition against d2-labeled (49B4) IgG
T9 construct: not shown: SNAP tag
T9 sequence: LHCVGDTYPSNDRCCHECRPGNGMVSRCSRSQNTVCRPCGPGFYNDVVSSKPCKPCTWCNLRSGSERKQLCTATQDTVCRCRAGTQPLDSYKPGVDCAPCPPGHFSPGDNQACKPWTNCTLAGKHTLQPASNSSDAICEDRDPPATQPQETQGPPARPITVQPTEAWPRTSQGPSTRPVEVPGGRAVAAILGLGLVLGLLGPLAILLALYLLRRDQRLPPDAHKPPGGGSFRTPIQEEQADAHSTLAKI

[15] = target: T10, human FAP (His-tagged ectodomain) (human, UniProt Q12884 27-760); assay: SPR, FAP captured via anti-His, 1:1 fit
T10 construct: SPR texts say 'human FAP' or 'His-tagged ... dimeric FAP'; also called hu FAP; human FAP (analyte 2)
Protocol: (§3) The capacity of the bispecific constructs to bind human, murine and cynomolgus FAP was assessed by surface plasmon resonance (SPR). All SPR experiments were performed on a Biacore T200 (Biacore) at 25° C. with HBS-EP as running buffer (0.01 M HEPES pH 7.4, 0.15 M NaCl, 3 mM EDTA, 0.005% Surfactant P20, (Biacore).
(§4) Immobilization levels for the anti-His antibody of up to 18000 resonance units (RU) were used.
(§5) Following the capture step, the bispecific constructs as well as control molecules were immediately passed over the chip surface at a concentration ranging from 0.006-100 nM with a flow rate of 30 μL/minute for 280 s and a dissociation phase of 180 s. Bulk refractive index differences were corrected for by subtracting the response obtained in a reference flow cell, where no FAP was immobilized. Affinity was determined using the Langmuir 1:1 curve fitting. For bivalent binding the same 1:1 fitting was used leading to an apparent KD value.

[16] = target: T11, murine FAP (His-tagged ectodomain) (mouse, UniProt P97321 27-761); assay: SPR, FAP captured via anti-His, 1:1 fit
T11 construct: also called mu FAP
Protocol: as §3, §4, §5

[17] = target: T12, cynomolgus FAP (His-tagged ectodomain) (cynomolgus, UniProt Q12884 27-760 (human entry)); assay: SPR, FAP captured via anti-His, 1:1 fit
T12 construct: also called cynoFAP
Protocol: as §3, §4, §5

[18] = target: T10, human FAP (His-tagged ectodomain); assay: SPR, FAP captured via anti-His, 1:1 fit, apparent KD (bivalent)
Protocol: as §3, §4, §5

[19] = target: T11, murine FAP (His-tagged ectodomain); assay: as above
Protocol: as §3, §4, §5

[20] = target: T13, recombinant murine 4-1BB Fc(kih) (murine, UniProt P0DOX5 223-449 = IgG part, biotin on C-terminal Avi tag where used biotinylated); assay: phage display, Fab screening
T13 construct: also called mu4-1BB

[21] = target: T5, human fibroblast activation protein …; assay: flow cytometry, WM266-4
Protocol: In some assays WM266-4 cells were pre-labeled with PKH-26 Red Fluorescence Cell linker Kit (Sigma, Cat.-No. PKH26GL) as described in Example 2.3.2 to allow separation of these tumor cells from other cells present (e.g. human PBMC).
Plates were centrifuged 4 minutes, 400×g at 4° C. and supernatants were flicked off. Cells were washed once with 200 μL DPBS and pellets were resuspended by a short and gentle vortex. All samples were resuspended in 50 μL/well of 4° C. cold FACS buffer containing the bispecific antigen binding molecules (primary antibody) at the indicated range of concentrations (titrated) and incubated for 120 minutes at 4° C. Afterwards the cells were washed four times with 200 μL 4° C.

B1: 6C8 P329GLALA IgG1 (antibody, V domains shown)
VH: QVTLRESGPALVKPTQTLTLTCTFSGFSLSTSGMGVGWIRQPPGKALEWLAHIWWDDDKYYQPSLKSRLTISKDTSKNQVVLTMTNMDPVDTATYYCARTRRYFPFAYWGQGTLVTVSS
VL: EIVMTQSPATLSVSPGERATLSCKASQNVGTNVAWYQQKPGQAPRLLIYSASYRYSGIPARFSGSGSGTEFTLTISSLQSEDFAVYYCQQYNTDPLTFGGGTKVEIKR
notes: prepared according to WO 2006/105021; also called benchmark antibody 6C8
binding result [1]: no binding (tested: 0.2 to 200 nM IgG) | Kd [2]: 30 nM | koff [2]: 0.0011 s⁻¹ | kon [2]: 38000 M⁻¹ s⁻¹ | Kd [3]: 190 nM | koff [3]: 0.014 s⁻¹ | kon [3]: 73000 M⁻¹ s⁻¹

B2: 8H9 P329GLALA IgG1 (antibody, V domains shown)
VH: QVQLVQSGAEVKKPGSSVKVSCKASGGTFSSYAISWVRQAPGQGLEWMGGIIPIFGTANYAQKFQGRVTITADKSTSTAYMELSSLRSEDTAVYYCAREYGWMDYWGQGTTVTVSS
VL: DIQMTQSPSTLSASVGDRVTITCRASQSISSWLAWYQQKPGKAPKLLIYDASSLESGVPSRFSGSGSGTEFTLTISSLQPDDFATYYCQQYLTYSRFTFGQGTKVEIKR
notes: anti-OX40; also called clone 8H9 hu IgG1
EC50 of NFκB activation in HeLa_hOx40_NFκB_luc1 reporter cells with secondary anti-human IgG Fcγ antibody (human OX40 on cells [4]): 0.66 nM | EC50 of rescuing suboptimal TCR stimulation with plate-immobilized anti-OX40 binder (preactivated human CD4 T cells) (human OX40 on cells [5]): 0.003 nM | binding result [6]: no binding | Kd [7]: 31 nM | koff [7]: 0.002 s⁻¹ | kon [7]: 65000 M⁻¹ s⁻¹ | Kd [8]: 28 nM | koff [8]: 0.0045 s⁻¹ | kon [8]: 160000 M⁻¹ s⁻¹ | EC50 (human OX40 on cells [9]): 0.59 nM | EC50 (human OX40 on cells [10]): 0.59 nM | Kd [11]: 670 nM | koff [11]: 0.096 s⁻¹ | kon [11]: 140000 M⁻¹ s⁻¹

B3: 8A06 P329GLALA IgG1 (antibody, V domains shown)
VH: QVQLVQSGAEVKKPGSSVKVSCKASGGTFSSYAISWVRQAPGQGLEWMGGIIPIFGTANYAQKFQGRVTITADKSTSTAYMELSSLRSEDTAVYYCARGYYAIDYWGQGTTVTVSS
VL: SSELTQDPAVSVALGQTVRITCQGDSLRSYYASWYQQKPGQAPVLVIYGKNNRPSGIPDRFSGSSSGNTASLTITGAQAEDEADYYCNSPQTSGSAVFGGGTKLTVLG
notes: also called anti-GITR 8A06 IgG
binding result [1]: no binding (tested: 0.2 to 200 nM IgG) | Kd [2]: 29 nM | Kd [3]: 1200 nM

B4: 49B4 P329GLALA IgG1 (antibody, V domains shown)
VH: QVQLVQSGAEVKKPGSSVKVSCKASGGTFSSYAISWVRQAPGQGLEWMGGIIPIFGTANYAQKFQGRVTITADKSTSTAYMELSSLRSEDTAVYYCAREYYRGPYDYWGQGTTVTVSS
VL: DIQMTQSPSTLSASVGDRVTITCRASQSISSWLAWYQQKPGKAPKLLIYDASSLESGVPSRFSGSGSGTEFTLTISSLQPDDFATYYCQQYSSQPYTFGQGTKVEIKR
notes: anti-OX40; sometimes misprinted 49B9; also called 49B4 IgG1; hu IgG1 (49B4)
EC50 of NFκB activation in HeLa_hOx40_NFκB_luc1 reporter cells with secondary anti-human IgG Fcγ antibody (human OX40 on cells [4]): 2.42 nM | EC50 of rescuing suboptimal TCR stimulation with plate-immobilized anti-OX40 binder (preactivated human CD4 T cells) (human OX40 on cells [5]): 0.591 nM | binding result [6]: no binding | Kd [7]: 460 nM | koff [7]: 0.67 s⁻¹ | kon [7]: 1.4e+06 M⁻¹ s⁻¹ | Kd [8]: 510 nM | koff [8]: 0.13 s⁻¹ | kon [8]: 250000 M⁻¹ s⁻¹ | EC50 (human OX40 on cells [9]): 4.19 nM | EC50 (human OX40 on cells [12]): 907 nM | Kd [11]: 350 nM | koff [11]: 0.038 s⁻¹ | kon [11]: 110000 M⁻¹ s⁻¹ | EC50 [13]: 0.05 nM | EC50 [14]: 12.7 nM

B5: OX40(49B4)/FAP(4B9) P329GLALA IgG1 1+1 (bispecific antibody, V domains shown)
VH 1: QVQLVQSGAEVKKPGSSVKVSCKASGGTFSSYAISWVRQAPGQGLEWMGGIIPIFGTANYAQKFQGRVTITADKSTSTAYMELSSLRSEDTAVYYCAREYYRGPYDYWGQGTTVTVSS
VL 1: DIQMTQSPSTLSASVGDRVTITCRASQSISSWLAWYQQKPGKAPKLLIYDASSLESGVPSRFSGSGSGTEFTLTISSLQPDDFATYYCQQYSSQPYTFGQGTKVEIK
VH 2: EVQLLESGGGLVQPGGSLRLSCAASGFTFSSYAMSWVRQAPGKGLEWVSAIIGSGASTYYADSVKGRFTISRDNSKNTLYLQMNSLRAEDTAVYYCAKGWFGGFNYWGQGTLVTVSS
VL 2: EIVLTQSPGTLSLSPGERATLSCRASQSVTSSYLAWYQQKPGQAPRLLINVGSRRATGIPDRFSGSGSGTDFTLTISRLEPEDFAVYYCQQGIMLPPTFGQGTKVEIK
notes: only variable domains of 49B4 and 4B9; human IgG1 P329G LALA
Kd [15]: 0.752 nM | Kd [16]: 4.79 nM | Kd [17]: 0.532 nM

B6: 28H1 IgG (antibody, V domains shown)
VH: EVQLLESGGGLVQPGGSLRLSCAASGFTFSSHAMSWVRQAPGKGLEWVSAIWASGEQYYADSVKGRFTISRDNSKNTLYLQMNSLRAEDTAVYYCAKGWLGNFDYWGQGTLVTVSS
VL: EIVLTQSPGTLSLSPGERATLSCRASQSVSRSYLAWYQQKPGQAPRLLIIGASTRATGIPDRFSGSGSGTDFTLTISRLEPEDFAVYYCQQGQVIPPTFGQGTKVEIK
notes: anti-FAP control IgG
Kd [18]: 0.933 nM | Kd [19]: 0.00049 nM

B7: clone 20G2 Fab (Fab, V domains shown)
VH: QVQLVQSGAEVKKPGSSVKVSCKASGGTFSSYAISWVRQAPGQGLEWMGGIIPIFGTANYAQKFQGRVTITADKSTSTAYMELSSLRSEDTAVYYCARSYYWESYPFDYWGQGTTVTVSS
VL: DIQMTQSPSTLSASVGDRVTITCRASQSISSWLAWYQQKPGKAPKLLIYDASSLESGVPSRFSGSGSGTEFTLTISSLQPDDFATYYCQQQHSYYTFGQGTKVEIK
notes: phage library Fab with CH1/CL and tags
binding result [20]: binds

B8: 8H9/FAP P329GLALA IgG1 2+2 (bispecific antibody)
heavy: not shown
light 1: not shown
light 2: EIVLTQSPGTLSLSPGERATLSCRASQSVSRSYLAWYQQKPGQAPRLLIIGASTRATGIPDRFSGSGSGTDFTLTISRLEPEDFAVYYCQQGQVIPPTFGQGTKVEIKSSASTKGPSVFPLAPSSKSTSGGTAALGCLVKDYFPEPVTVSWNSGALTSGVHTFPAVLQSSGLYSLSSVVTVPSSSLGTQTYICNVNHKPSNTKVDKKVEPKSCD
notes: also called bispecific bivalent 2+2 construct 8H9; 8H9 FAP 2+2
EC50 [21]: 2.88 nM | EC50 (human OX40 on cells [10]): 0.93 nM
